Measurements published in US20140179604A1 (U S A REPRESENTED BY THE DEPARTMENT OF VETERANS AFFAIRS, published 2014).
Non-standard residues stand in square brackets, D forms with d. No end group written: not given here. NMeY = CN[C@@H](Cc1ccc(O)cc1)C(=O)O; Nle = CCCC[C@H](N)C(=O)O; Orn = NCCC[C@H](N)C(=O)O; Abu = CC[C@H](N)C(=O)O; GABA = NCCCC(=O)O

Molecular target: T1, GHRH receptor (membrane receptors of human anterior pituitary cells) (human), Q02643
T1 chain: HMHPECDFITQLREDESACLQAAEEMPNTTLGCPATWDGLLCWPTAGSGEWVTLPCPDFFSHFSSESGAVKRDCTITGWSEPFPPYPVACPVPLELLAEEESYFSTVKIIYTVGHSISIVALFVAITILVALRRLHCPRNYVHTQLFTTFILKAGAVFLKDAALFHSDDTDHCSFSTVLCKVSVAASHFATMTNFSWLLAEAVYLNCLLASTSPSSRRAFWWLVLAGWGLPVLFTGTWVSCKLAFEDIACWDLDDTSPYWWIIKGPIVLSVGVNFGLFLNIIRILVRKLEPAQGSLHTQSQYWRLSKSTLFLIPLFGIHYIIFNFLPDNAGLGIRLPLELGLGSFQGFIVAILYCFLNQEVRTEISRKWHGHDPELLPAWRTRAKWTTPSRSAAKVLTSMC
Assay: competition with 125I-JV-1-42, human pituitary membranes

IC50: 1.22 nM
Relative affinity (Binding potency) vs JI-38: 3.57 JI-38 = 1
B1: P-29703 [N-Me-Tyr^1, Gln^8, Orn^12, Abu^15, Orn^21, Nle^27, Gln-Gab^30]hGHRH(1-30)NH2 (peptide)
chain: [NMeY]ADAIFTQSYR[Orn]VL[Abu]QLSAR[Orn]LLQDI[Nle]SRQ[GABA]-NH2
modifications: N-terminus assumed
SMILES: CCCC[C@H](NC(=O)[C@@H](NC(=O)[C@H](CC(=O)O)NC(=O)[C@H](CCC(N)=O)NC(=O)[C@H](CC(C)C)NC(=O)[C@H](CC(C)C)NC(=O)[C@H](CCCN)NC(=O)[C@H](CCCNC(=N)N)NC(=O)[C@H](C)NC(=O)[C@H](CO)NC(=O)[C@H](CC(C)C)NC(=O)[C@H](CCC(N)=O)NC(=O)[C@H](CC)NC(=O)[C@H](CC(C)C)NC(=O)[C@@H](NC(=O)[C@H](CCCN)NC(=O)[C@H](CCCNC(=N)N)NC(=O)[C@H](Cc1ccc(O)cc1)NC(=O)[C@H](CO)NC(=O)[C@H](CCC(N)=O)NC(=O)[C@@H](NC(=O)[C@H](Cc1ccccc1)NC(=O)[C@@H](NC(=O)[C@H](C)NC(=O)[C@H](CC(=O)O)NC(=O)[C@H](C)NC(=O)[C@H](Cc1ccc(O)cc1)NC)[C@@H](C)CC)[C@@H](C)O)C(C)C)[C@@H](C)CC)C(=O)N[C@@H](CO)C(=O)N[C@@H](CCCNC(=N)N)C(=O)N[C@@H](CCC(N)=O)C(=O)NCCCC(N)=O
